Results reported in publication PMC10786891, “Massively parallel profiling of RNA-targeting CRISPR-Cas13d”.
Changes are numbered by the printed parent chain. Numbers in names are those of the source.

T1: EsCas13d, nuclease-dead (Eubacterium siraeum, UniProt B0MS50, R295A;H300A;R849A;H854A)
T1 sequence: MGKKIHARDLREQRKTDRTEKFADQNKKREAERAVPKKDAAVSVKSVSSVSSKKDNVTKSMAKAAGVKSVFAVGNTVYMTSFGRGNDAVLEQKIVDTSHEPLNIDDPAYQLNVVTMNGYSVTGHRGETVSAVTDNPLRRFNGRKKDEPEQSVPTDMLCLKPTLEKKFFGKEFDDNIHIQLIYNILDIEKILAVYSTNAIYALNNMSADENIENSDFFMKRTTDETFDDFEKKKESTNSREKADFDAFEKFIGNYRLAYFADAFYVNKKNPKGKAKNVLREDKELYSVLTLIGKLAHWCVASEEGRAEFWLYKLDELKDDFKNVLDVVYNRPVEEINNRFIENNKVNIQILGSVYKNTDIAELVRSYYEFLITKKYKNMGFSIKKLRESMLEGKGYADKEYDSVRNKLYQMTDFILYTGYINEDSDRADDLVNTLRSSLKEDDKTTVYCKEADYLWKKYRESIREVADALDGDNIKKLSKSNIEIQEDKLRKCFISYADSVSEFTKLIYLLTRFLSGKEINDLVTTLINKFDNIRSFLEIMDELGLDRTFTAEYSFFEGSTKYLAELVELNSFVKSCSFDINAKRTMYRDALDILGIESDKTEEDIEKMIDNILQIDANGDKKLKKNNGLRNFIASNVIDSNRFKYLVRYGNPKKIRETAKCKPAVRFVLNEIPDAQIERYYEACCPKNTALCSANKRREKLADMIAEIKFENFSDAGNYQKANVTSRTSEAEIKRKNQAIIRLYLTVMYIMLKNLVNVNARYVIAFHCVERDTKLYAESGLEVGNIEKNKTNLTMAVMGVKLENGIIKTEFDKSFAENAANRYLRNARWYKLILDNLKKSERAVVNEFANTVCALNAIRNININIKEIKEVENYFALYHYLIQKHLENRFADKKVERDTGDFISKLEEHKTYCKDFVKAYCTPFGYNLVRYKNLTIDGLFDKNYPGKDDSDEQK

B1: target 1 U8C,U10G (mixed)
RNA 1: CACCCGUGCAAAAAUGCAGGGGUCUAAAACUGAGCGGAUAACCUCUCUAUGG
RNA 2: GGGAAUGGAUCCACAUCUACGAAUUCGUACCAUAGAGAGGUGACCCGCUCACCGAGAUCGGAAGAGCACACGU
B2: target 1 U10A,G17U (mixed)
RNA 1: B1 RNA 1
RNA 2: B1 RNA 2 with G35U, G42A, C44U
B3: target 1 insU 3' of 6,insA 3' of 3 (mixed)
RNA 1: B1 RNA 1
RNA 2: GGGAAUGGAUCCACAUCUACGAAUUCGUACCAUAGAGAGGUUAUCCUGCUACACCGAGAUCGGAAGAGCACACGU
B4: target 1 insG 3' of 14,insU 3' of 5 (mixed)
RNA 1: B1 RNA 1
RNA 2: B3 RNA 2 with U41G, A43U, U44A, C45U, U47C, C49U, U50C, A51U
B5: target 1 U3G,C4U (mixed)
RNA 1: B1 RNA 1
RNA 2: B1 RNA 2 with G42U, C44U, C48U, U49G
B6: target 1 insG 3' of 22,insU 3' of 6 (mixed)
RNA 1: B1 RNA 1
RNA 2: GGGAAUGGAUCCACAUCUACGAAUUCGUACGCAUAGAGAGGUUAUCCUGCUCACCGAGAUCGGAAGAGCACACGU
B7: target 1 insU 3' of 9,insU 3' of 4 (mixed)
RNA 1: B1 RNA 1
RNA 2: B3 RNA 2 with C45U, U47C, A51U
B8: target 1 insC 3' of 15,insA 3' of 7 (mixed)
RNA 1: B1 RNA 1
RNA 2: GGGAAUGGAUCCACAUCUACGAAUUCGUACCAUAGAGCAGGUUAUCACGCUCACCGAGAUCGGAAGAGCACACGU
B9: target 1 insC 3' of 14,insC 3' of 10 (mixed)
RNA 1: B1 RNA 1
RNA 2: B8 RNA 2 with C38A, A39C, A44C, U45A, C46U, A47C
B10: target 1 insU 3' of 22,insG 3' of 4 (mixed)
RNA 1: B1 RNA 1
RNA 2: B6 RNA 2 with G31U, U48G, G49C, C50G
B11: target 1 insA 3' of 17,insC 3' of 16 (mixed)
RNA 1: B1 RNA 1
RNA 2: B8 RNA 2 with G37A, A39G, G40A, U42G, A44U, U45A, C46U, A47C
B12: target 1 insC 3' of 22,insU 3' of 12 (mixed)
RNA 1: B1 RNA 1
RNA 2: B6 RNA 2 with G31C, A44U, U45A, C46U, U48C
B13: target 1 insU 3' of 7,insC 3' of 3 (mixed)
RNA 1: B1 RNA 1
RNA 2: B3 RNA 2 with C46U, U47C, A51C
B14: target 1 insU 3' of 18,insC 3' of 10 (mixed)
RNA 1: B1 RNA 1
RNA 2: B8 RNA 2 with G35U, A36G, G37A, C38G, A44C, U45A, C46U, A47C
B15: target 1 insA 3' of 8,insU 3' of 7 (mixed)
RNA 1: B1 RNA 1
RNA 2: B3 RNA 2 with C45A, G48C, C49G, U50C, A51U
B16: target 1 U11C,C22A (mixed)
RNA 1: B1 RNA 1
RNA 2: B1 RNA 2 with C30A, U41C, G42U, C44U
B17: target 1 insU 3' of 5,insU 3' of 2 (mixed)
RNA 1: B1 RNA 1
RNA 2: B3 RNA 2 with U47G, G48U, A51C, C52U
B18: target 1 U19G,A20U (mixed)
RNA 1: B1 RNA 1
RNA 2: B1 RNA 2 with A32U, U33G, G42U, C44U
B19: target 1 U11G,G15A (mixed)
RNA 1: B1 RNA 1
RNA 2: B1 RNA 2 with G37A, U41G, G42U, C44U
B20: target 1 C6U,G13A (mixed)
RNA 1: B1 RNA 1
RNA 2: B1 RNA 2 with G39A, G42U, C44U, C46U
B21: target 1 U11G,A16G (mixed)
RNA 1: B1 RNA 1
RNA 2: B1 RNA 2 with A36G, U41G, G42U, C44U
B22: target 1 C2A,A9G (mixed)
RNA 1: B1 RNA 1
RNA 2: B1 RNA 2 with G42U, A43G, C44U, C50A
B23: target 1 insC 3' of 22,insA 3' of 15 (mixed)
RNA 1: B1 RNA 1
RNA 2: B6 RNA 2 with G31C, G40A, U42G, A44U, U45A, C46U, U48C
B24: target 1 insG 3' of 3,insG 3' of 3 (mixed)
RNA 1: B1 RNA 1
RNA 2: B3 RNA 2 with U47G, G48C, C49U, U50G, A51G
B25: target 1 C4A,A9C (mixed)
RNA 1: B1 RNA 1
RNA 2: B1 RNA 2 with G42U, A43C, C44U, C48A
B26: target 1 A1G,U8G (mixed)
RNA 1: B1 RNA 1
RNA 2: B1 RNA 2 with G42U, C44G, A51G
B27: target 1 C7A,A14U (mixed)
RNA 1: B1 RNA 1
RNA 2: B1 RNA 2 with A38U, G42U, C44U, C45A
B28: target 1 insG 3' of 18,insG 3' of 18 (mixed)
RNA 1: B1 RNA 1
RNA 2: B8 RNA 2 with A36G, C38A, A39G, G40A, U42G, A44U, U45A, C46U, A47C
B29: target 1 A1C,U8G (mixed)
RNA 1: B1 RNA 1
RNA 2: B1 RNA 2 with G42U, C44G, A51C
B30: target 1 insG 3' of 11,insU 3' of 6 (mixed)
RNA 1: B1 RNA 1
RNA 2: B8 RNA 2 with C38A, A39G, G41U, U42G, A47C, C48U
B31: target 1 insA 3' of 17,insG 3' of 7 (mixed)
RNA 1: B1 RNA 1
RNA 2: B8 RNA 2 with G37A, C38G, A47G
B32: target 1 insC 3' of 10,insU 3' of 4 (mixed)
RNA 1: B1 RNA 1
RNA 2: B3 RNA 2 with A43C, U44A, C45U, U47C, A51U
B33: target 1 complement block 7-10 (mixed)
RNA 1: B1 RNA 1
RNA 2: B1 RNA 2 with G42A, A43U, C44A, C45G
B34: target 1 insU 3' of 9,insC 3' of 9 (mixed)
RNA 1: B1 RNA 1
RNA 2: B3 RNA 2 with C46U, U47C, G48C, C49G, U50C, A51U

Molecular target: T1, EsCas13d, nuclease-dead
Assay: crRNA (strand 1, pre-loaded); Mg2+; 40 mM Tris-HCl pH 7.5, 150 mM NaCl, 6 mM MgCl2, 1 mM DTT, 0.1% Tween-20, 0.2 mg/ml BSA; 25 C; 10 min per concentration, then washed
Conditions: tags: His6-TwinStrep-SUMO cleaved; N-terminal SNAP kept (SNAP-Surface 488); label: 3' end held by stalled T7 RNA polymerase

Binder | Kd
B1 | 0.0135 ± 0.0009 µM
B2 | 0.0372 ± 0.0032 µM
B3 | 0.00807 ± 0.0003 µM
B4 | 0.0296 ± 0.0021 µM
B5 | 0.0072 ± 0.0006 µM
B6 | 0.049 ± 0.007 µM
B7 | 0.0143 ± 0.0012 µM
B8 | 0.0126 ± 0.001 µM
B9 | 0.055 ± 0.022 µM
B10 | 0.0223 ± 0.0015 µM
B11 | 0.0116 ± 0.0007 µM
B12 | 0.0168 ± 0.0012 µM
B13 | 0.0156 ± 0.0007 µM
B14 | 0.065 ± 0.024 µM
B15 | 0.0128 ± 0.0005 µM
B16 | 0.0213 ± 0.0015 µM
B17 | 0.0148 ± 0.0013 µM

Binder | Kd
B18 | 0.096 ± 0.035 µM
B19 | 0.059 ± 0.007 µM
B20 | 0.009 ± 0.0011 µM
B21 | 0.053 ± 0.006 µM
B22 | 0.0117 ± 0.0009 µM
B23 | 0.0109 ± 0.0008 µM
B24 | 0.0055 ± 0.0005 µM
B25 | 0.0071 ± 0.0007 µM
B26 | 0.0245 ± 0.0018 µM
B27 | 0.039 ± 0.0035 µM
B28 | 0.048 ± 0.004 µM
B29 | 0.0224 ± 0.0017 µM
B30 | 0.062 ± 0.008 µM
B31 | 0.0115 ± 0.0006 µM
B32 | 0.0127 ± 0.0011 µM
B33 | 0.0117 ± 0.0007 µM
B34 | 0.0215 ± 0.0016 µM
